Results reported in article PMC5355875, “Crystal structure of a raw-starch-degrading bacterial α-amylase belonging to subfamily 37 of the glycoside hydrolase family GH13” (Scientific Reports, 2017).

Tests used:
[1] = system: T1, OC[C@H]1O[C@@H]2O[C@H]3[C@H](O)[C@@H](O)[C@@H](O[C@H]4[C@H](O)[C@@H](O)[C@@H](O[C@H]5[C@H](O)[C@@H](O)[C@@H](O[C@H]6[C@H](O)[C@@H](O)[C@@H](O[C@H]7[C@H](O)[C@@H](O)[C@@H](O[C@H]8[C@H](O)[C@@H](O)[C@@H](O[C@H]9[C@H](O)[C@@H](O)[C@@H](O[C@H]1[C@H](O)[C@H]2O)O[C@@H]9CO)O[C@@H]8CO)O[C@@H]7CO)O[C@@H]6CO)O[C@@H]5CO)O[C@@H]4CO)O[C@@H]3CO; assay: reducing sugar assay (copper-bicinchoninate), Michaelis-Menten fit; assay type: biochemical, uncultured bacterium; settings: 40 °C, pH 6.5, 20 mM HEPES, 150 mM NaCl, 10 mM CaCl2
T1 construct: SBD-truncated catalytic domain, residues 1-496, N-terminal 6xHis (TEV site)
Text: (§1) reducing sugar assay (copper-bicinchoninate), Michaelis-Menten fit on AmyPΔSBD

[2] = molecular target: T2, AmyP (uncultured bacterium, UniProt D9MZ14, E221Q); assay: X-ray crystal structure, […] Å; assay type: binding; settings: co-crystallised with γ-CD, pH 6.0; active site, subsites -1, -2 and -3
T2 construct: gene Amy-1E; full-length residues 1-639 crystallised, 6xHis tag cut by TEV, E. coli BL21(DE3); only residues 1-496 (AmyPΔSBD) seen in crystals, SBD partly degraded

[3] = molecular target: T3, AmyP (uncultured bacterium, UniProt D9MZ14); assay: X-ray crystal structure, […] Å; assay type: binding; settings: co-crystallised with β-CD, pH 8.5; active site, subsites -2 and -3
T3 construct: gene Amy-1E; full-length residues 1-639 crystallised, 6xHis tag cut by TEV, E. coli BL21(DE3); only residues 1-496 (AmyPΔSBD) seen in crystals, SBD partly degraded

[4] = substrate: OC[C@H]1O[C@@H]2O[C@H]3[C@H](O)[C@@H](O)[C@@H](O[C@H]4[C@H](O)[C@@H](O)[C@@H](O[C@H]5[C@H](O)[C@@H](O)[C@@H](O[C@H]6[C@H](O)[C@@H](O)[C@@H](O[C@H]7[C@H](O)[C@@H](O)[C@@H](O[C@H]8[C@H](O)[C@@H](O)[C@@H](O[C@H]9[C@H](O)[C@@H](O)[C@@H](O[C@H]1[C@H](O)[C@H]2O)O[C@@H]9CO)O[C@@H]8CO)O[C@@H]7CO)O[C@@H]6CO)O[C@@H]5CO)O[C@@H]4CO)O[C@@H]3CO; assay: reducing sugar assay (copper-bicinchoninate), Michaelis-Menten fit; assay type: biochemical, uncultured bacterium; settings: 40 °C, pH 6.5, 20 mM HEPES, 150 mM NaCl, 10 mM CaCl2
Text: as §1

Row | Molecule | Km [4] | kcat [4] | kcat/Km [4] | other results
1 | AmyPΔSBD (uncultured bacterium; N148A) |  |  |  | Km [1]: 200 ± 30 µM; kcat [1]: 22.59 ± 0.007 s⁻¹; kcat/Km [1]: 113000 M⁻¹ s⁻¹
2 | OC[C@H]1O[C@H](O[C@H]2[C@H](O)[C@@H](O)[C@@H](O[C@H]3[C@H](O)[C@@H](O)C(O)O[C@@H]3CO)O[C@@H]2CO)[C@H](O)[C@@H](O)[C@@H]1O (some centres unmarked) [maltotriose] |  |  |  | X-ray crystal structure, 2.55 Å [2]: electron density representing a maltotriose molecule bound to the active site
3 | AmyPΔSBD (uncultured bacterium; K131A) |  |  |  | Km [1]: 1290 ± 130 µM; kcat [1]: 7.47 ± 0.004 s⁻¹; kcat/Km [1]: 5800 M⁻¹ s⁻¹
4 | OC[C@H]1O[C@H](O[C@H]2[C@H](O)[C@@H](O)C(O)O[C@@H]2CO)[C@H](O)[C@@H](O)[C@@H]1O (some centres unmarked) [maltose] |  |  |  | X-ray crystal structure, 1.95 Å [3]: electron density representing a maltose molecule at subsites -2 and -3
5 | AmyPΔSBD (uncultured bacterium) (protein, SBD-truncated catalytic domain, residues 1-496, N-terminal 6xHis (TEV site)) MCDSALTAQANDLRIYQVMVESFVNGDDAIGHGTGYGTSHHKGDLQGIIDSLDYIESLGMNAIWLTPIFDSIPVEGQDHWADRLDATGYFTSNYFAVDPRFGTMEQAKELVEKAHEKGLYVFFDGVFGHHKDNVVPSPEGRLPVGENNPVSYPESLAFYQEVATFWIEELKIDGWRLDQAYQVPTEAWTAIRASVDEASKSVTYVNSEGEAVNPLGYMVAEIWNNENYIKETGYGAEGEPALCSAFDFPVRYRVVETFAANENGIGNKGGKWLDEGMNLHRLYPSHAQPNLMLGNHDLVRFGDLLQRGNIASPEQAEYWERHKAALSFQAAYSGPITLYYGEEIGDELEGYAQKVEQDCAVQGLCDDHVARTSANIDGLTVNLNEKQRDLKQYVSQLMTLRAAHPALSRGERTNIVANETVYIDHKQADDDALIYMVSTTADQDTVELKASDIASDGQLVDLLTGKVHSAINGEYQISLAPFEAKFLLIETPSASG | 120 ± 5 µM | 39.58 ± 0.004 s⁻¹ | 323000 M⁻¹ s⁻¹ | 
6 | AmyPΔSBD (uncultured bacterium; N148Y) (protein, SBD-truncated catalytic domain, residues 1-496, N-terminal 6xHis (TEV site)) MCDSALTAQANDLRIYQVMVESFVNGDDAIGHGTGYGTSHHKGDLQGIIDSLDYIESLGMNAIWLTPIFDSIPVEGQDHWADRLDATGYFTSNYFAVDPRFGTMEQAKELVEKAHEKGLYVFFDGVFGHHKDNVVPSPEGRLPVGENYPVSYPESLAFYQEVATFWIEELKIDGWRLDQAYQVPTEAWTAIRASVDEASKSVTYVNSEGEAVNPLGYMVAEIWNNENYIKETGYGAEGEPALCSAFDFPVRYRVVETFAANENGIGNKGGKWLDEGMNLHRLYPSHAQPNLMLGNHDLVRFGDLLQRGNIASPEQAEYWERHKAALSFQAAYSGPITLYYGEEIGDELEGYAQKVEQDCAVQGLCDDHVARTSANIDGLTVNLNEKQRDLKQYVSQLMTLRAAHPALSRGERTNIVANETVYIDHKQADDDALIYMVSTTADQDTVELKASDIASDGQLVDLLTGKVHSAINGEYQISLAPFEAKFLLIETPSASG | 100 ± 9 µM | 26.11 ± 0.01 s⁻¹ | 274000 M⁻¹ s⁻¹ | 
7 | AmyPΔSBD (uncultured bacterium; Y351A) (protein, SBD-truncated catalytic domain, residues 1-496, N-terminal 6xHis (TEV site)) MCDSALTAQANDLRIYQVMVESFVNGDDAIGHGTGYGTSHHKGDLQGIIDSLDYIESLGMNAIWLTPIFDSIPVEGQDHWADRLDATGYFTSNYFAVDPRFGTMEQAKELVEKAHEKGLYVFFDGVFGHHKDNVVPSPEGRLPVGENNPVSYPESLAFYQEVATFWIEELKIDGWRLDQAYQVPTEAWTAIRASVDEASKSVTYVNSEGEAVNPLGYMVAEIWNNENYIKETGYGAEGEPALCSAFDFPVRYRVVETFAANENGIGNKGGKWLDEGMNLHRLYPSHAQPNLMLGNHDLVRFGDLLQRGNIASPEQAEYWERHKAALSFQAAYSGPITLYYGEEIGDELEGAAQKVEQDCAVQGLCDDHVARTSANIDGLTVNLNEKQRDLKQYVSQLMTLRAAHPALSRGERTNIVANETVYIDHKQADDDALIYMVSTTADQDTVELKASDIASDGQLVDLLTGKVHSAINGEYQISLAPFEAKFLLIETPSASG | 2110 ± 90 µM | 25.02 ± 0.006 s⁻¹ | 11900 M⁻¹ s⁻¹ | 
